For data set [1], the target named is T1, Tat47-58 peptide (HIV-1 Tat) (HIV-1).
T1 chain: YGRKKRRQRRRP
Nature of the data set: EMSA; TK buffer: 50 mM Tris-HCl pH 7.4, 20 mM KCl, 0.5 mM MgCl2, 0.1% Triton X-100; peptide 0.1-1.6 uM; annealed from 90 C to 24 C; gel at 4 C. The conditions noted are these: protein: synthetic; label: 5'-fluorescein, 3'-32P cytidine bisphosphate; hairpin. Background: A gel shift assay detects complexes by their altered migration in electrophoresis.

The target of data set [2] is T1, Tat47-58 peptide (HIV-1 Tat). Nature of the data set: EMSA; capillary electrophoresis mobility shift; TK buffer 0.5 mM MgCl2; peptide 0.1-1.6 mM as printed. The conditions noted are these: protein: synthetic; label: 5'-fluorescein; hairpin.

B1: HIV-1 TAR RNA oligonucleotide (ssRNA)
RNA: GGCAGAUCUGAGCCUGGGAGCUCUCUGCC
Consider B1, for which the binding result in data set [1] is “binds”.

B2: HIV-1 TAR RNA oligonucleotide (fluorescein only) (ssRNA)
RNA: GGCAGAUCUGAGCCUGGGAGCUCUCUGCC
Consider B2, for which the binding result in data set [2] is “binds”.

The record behind these values is patent US20060257866, “Methods for identifying small molecules that modulate premature translation termination and nonsense mediated mrna decay” (published 2006).
